{"source": "patent US20240287172A1", "about": "(SCIRHOM, published 2024)"}
{"target": "T1, hiR2-FL-M534-T7 (deletion of M534) (human, UniProt Q6PJF5 1-856)", "T1 construct": "single amino acid deletion", "T1 sequence": "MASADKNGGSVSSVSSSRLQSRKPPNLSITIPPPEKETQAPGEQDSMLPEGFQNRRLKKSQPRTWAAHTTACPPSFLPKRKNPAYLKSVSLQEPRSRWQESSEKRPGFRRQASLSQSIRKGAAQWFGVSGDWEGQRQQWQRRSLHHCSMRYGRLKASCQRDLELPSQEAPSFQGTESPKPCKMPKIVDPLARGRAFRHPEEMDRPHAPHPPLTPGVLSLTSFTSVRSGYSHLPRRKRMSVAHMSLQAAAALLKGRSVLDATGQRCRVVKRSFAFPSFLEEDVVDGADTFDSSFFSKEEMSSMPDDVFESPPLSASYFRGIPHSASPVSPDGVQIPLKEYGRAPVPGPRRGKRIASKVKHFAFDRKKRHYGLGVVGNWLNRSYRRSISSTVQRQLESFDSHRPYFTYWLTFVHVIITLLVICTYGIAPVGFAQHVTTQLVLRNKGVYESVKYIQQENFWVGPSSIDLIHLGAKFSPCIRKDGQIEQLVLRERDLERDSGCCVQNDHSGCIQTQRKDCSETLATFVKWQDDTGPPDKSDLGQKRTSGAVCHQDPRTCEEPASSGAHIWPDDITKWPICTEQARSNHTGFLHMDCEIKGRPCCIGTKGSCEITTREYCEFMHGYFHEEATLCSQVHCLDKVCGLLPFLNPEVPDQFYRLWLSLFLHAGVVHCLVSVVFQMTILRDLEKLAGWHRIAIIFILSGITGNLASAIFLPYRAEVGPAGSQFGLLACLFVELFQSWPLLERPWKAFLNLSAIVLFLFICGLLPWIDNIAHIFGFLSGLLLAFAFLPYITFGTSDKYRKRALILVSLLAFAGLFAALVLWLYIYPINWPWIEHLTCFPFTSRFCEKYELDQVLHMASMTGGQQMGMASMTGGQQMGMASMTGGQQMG", "assay": "FACS, MEF-DKO cells, 3 µg/ml", "description": "In brief, immortalized MEF-DKO-hiR2-FL-G498A-T7, MEF-DKO-hiR2-FL-Q502R-T7, MEF-DKO-hiR2-FL-I509V-T7, MEF-DKO-hiR2-FL-Q512S-T7, MEF-DKO-hiR2-FL-R513E-T7, MEF-DKO-hiR2-FL-K514E-T7, MEF-DKO-hiR2-FL-D515E-T7, MEF-DKO-hiR2-FL-E518S-T7, MEF-DKO-hiR2-FL-T522V-T7, MEF-DKO-hiR2-FL-F523W-T7, MEF-DKO-hiR2-FL-Q527P-T7, MEF-DKO-hiR2-FL-D528I-T7, MEF-DKO-hiR2-FL-D529H-T7, MEF-DKO-hiR2-FL-T530P-T7, MEF-DKO-hiR2-FL-G531S-T7, MEF-DKO-hiR2-FL-P532A-T7, MEF-DKO-hiR2-FL-M534-T7, MEF-DKO-hiR2-FL-D535-T7, MEF-DKO-hiR2-FL-K536-T7, MEF-DKO-hiR2-FL-S537E-T7, MEF-DKO-hiR2-FL-D538L-T7, MEF-DKO-hiR2-FL-L539A-T7, MEF-DKO-hiR2-FL-Q541H-T7, MEF-DKO-hiR2-FL-T544Q-T7, MEF-DKO-hiR2-FL-S545F-T7, MEF-DKO-hiR2-FL-A547S-T7, MEF-DKO-hiR2-FL-T555V-T7, MEF-DKO-hiR2-FL-E557D-T7, MEF-DKO-hiR2-FL-A560S-T7 and MEF-DKO-hiR2-FL-S562E-T7 cells were harvested with 10 mM EDTA in PBS, washed and resuspended in FACS buffer (PBS, 3% FBS, 0.05% sodium azide), and seeded in Nunc U-bottom 96-well plates (Thermo Fisher Scientific, USA) at approximately 3×10⁵ cells per well. To pellet cells and remove supernatants, the plates were centrifuged at 1,500 rpm and 4° C. for 3 minutes. For primary staining, cells were resuspended in 100 μl per well of either FACS buffer alone (controls) or the purified antibodies 3, 5, 16, 22, 34, 42, 43, 44, 48, and 50 of the invention at 3 μg/ml in FACS buffer and incubated on ice for 1 hour. Afterwards, plates were centrifuged at 1,500 rpm and 4° C. for 3 minutes and washed twice with 200 μl per well of FACS buffer. For secondary staining, cells were spun down and resuspended in 100 μl per well of PE-conjugated goat anti-mouse IgG F(ab′)2 detection fragment (Dianova, Germany) diluted 1:100 in FACS buffer. Protected from light, the cell suspensions were incubated on ice for 1 hour. Plates were then centrifuged at 1,500 rpm and 4° C. for 3 minutes and washed three times with 200 μl per well of FACS buffer. Finally, cells were resuspended in 150 μl per well of FACS buffer and analyzed using a BD Accuri™ C6 Plus flow cytometer (Becton Dickinson, Germany).", "units": {"loss of binding vs wild type": "%"}}
{"binder": "antibody 34 (antibody, V domains shown, mouse IgG, kappa light chain; also called clone #34; purified antibody 34) VH: QVTLKESGPGILQPSQTLSLTCSFSGFSLSTFSLGVGWIRQSSGKGLEWLAHIWWDDEKYYNPALKSRLTISKDTSKNQVFLKIANVDAADTATYYCARAYYSKSYYALDYWGQGTSVTVSS VL: DIQMTQSPSSLSASLGERVSLTCRASQEISGYLSWLQQKPDGTIKRLIYAASTLDSGVPKRFSGSRSGSDYSLAISSLESEDFADYYCLQYANFPFTFGSGTKLEIK", "loss of binding vs wild type": "≥ 95"}
{"binder": "antibody 5 (antibody, V domains shown, mouse IgG, kappa light chain; also called clone #5; purified antibody 5) VH: QVTLKESGPGILQPSQTLSLTCSFSGFSLSTFGMGVGWIRQPSGKGLEWLAHIWWDDEKYYNSALKSRLTISKATSKNQAFLKIANVDTADTATYYCARISNYGSNYWYFNVWGTGTTVTVSS VL: QVVLTQSPALMSASPGEKVTMTCSAGSSVSCMYWYQQKPGSSPRVLIYDTSNLASGVPARFTGSGSGTSYSLTISRMEAEDAASYYCQQWNSYPLTFGAGTKLELK", "loss of binding vs wild type": "≥ 95"}
{"binder": "antibody 43 (antibody, V domains shown, mouse IgG, kappa light chain; also called clone #43; purified antibody 43) VH: QVALKESGPGILQPSQTLSLTCSFSGFSLSTFGMGVGWIRQSSGKGLEWLANIWWDDDKYYNPALKSRLTISKDASKNQAFLKIANVDTADTATYYCARIGNYGSNYWYFDVWGTGTTVTVSS VL: QIVLTQSPAIMSASPGERVTMTCSANSRISYMYWYQQKPGSSPRLLIYDTSNLASGVPVRFSGSGSGTSYSLTISRMEAEDAATYNCQQWSSYPLTFGAGTKLELK", "loss of binding vs wild type": "≥ 95"}
{"binder": "antibody 42 (antibody, V domains shown, mouse IgG, kappa light chain; also called clone #42; purified antibody 42) VH: QVTLKESGPGILQPSQTLSLTCSLSGFSLSTFGRGVGWIRQPSGKGLEWLAHIWWDDEKYYNPALKSRLTISKDTSKNQVFLRIANVDTADTATYYCARIQNYGSNYWYFDVWGTGTTVTVSS VL: LIVLTQSPAIMSASPGEKVTMTCGATSRISYMFWYQQKPGSSPRVLIYDTSNLASGVPVRFSGSGSGTSYSLTISRVEAEDVATYYCQQWNSYPLTFGAGTKLELK", "loss of binding vs wild type": "≥ 95"}
{"binder": "antibody 44 (antibody, V domains shown, mouse IgG, kappa light chain; also called clone #44; purified antibody 44) VH: QVTLKESGPGILQPSQTLSLTCSFSGFSLSTFGMGVGWIRQPSEKGLEWLAHIWWDDDKYYNPALKSRLTISKDTSKNQIFLKITNVDTAETATYYCSRIGNYGSNYWYFDVWGTGTTVTVSS VL: QIVLTQSPAVMSASPGEKVTMTCTASSSVYYMYWYQQTPGSSPRLLIYDTSNLASGVPVRFSGSGSGTSYSLTISRMEAEDAATYYCQQWNTYPLTFGAGTKLELK", "loss of binding vs wild type": "≥ 95"}
{"binder": "antibody 22 (antibody, V domains shown, mouse IgG, kappa light chain; also called clone #22; purified antibody 22) VH: QVTLKESGPGILQPSQTLSLTCSFSGFSLSTFGMGVGWIRQPSGKGLEWLAHIWWDDEKYYNSALKSRLTISKATSKNQVFLKIANVDTADTATYYCARISNYGSNYWYFNVWGTGTTVTVSS VL: QVVLTQSPALMSASPGEKVTMTCSAGSSVSYMYWYQQKPGSSPRVLIYDTSNLASGVPARFTGSGSGTSYSLTISRMEAEDAATYYCQQWNSYPLTFGAGTKLELK", "loss of binding vs wild type": "≥ 95"}
{"binder": "antibody 16 (antibody, V domains shown, mouse IgG, kappa light chain; also called clone #16; purified antibody 16) VH: QVTLKESGPGILQPSQTLSLTCSFSGFSLSTFALGVGWIRQPSGRGLEWLAHIWWDDDKYYNPALKSRLTISKDTSKNHVFLKIANVDTADTATYYCARITTYYYGMDYWGQGTSVTVSS VL: DIVLSQSPATLSVTPGDSVSLFCRASQSIGNHLHWYQQESHASPRLLIKYASQSISGIPSRFSGSGSGTDFTLSINSVETEDFGMYFCQQSYNWPLTFGAGTKLELK", "loss of binding vs wild type": "≥ 95"}
{"binder": "antibody 3 (antibody, V domains shown, mouse IgG, kappa light chain; also called clone #3; purified antibody 3) VH: QVTLKESGPGILQPSQTLSLTCSFSGFSLTTFAMGIGWVRQPSGKGLEWLAHIWWDGEKYNNPVLKSRLTISKDTSKNQVFLRIANVDTPDTATYYCARISSIYYIIDNWGQGTSVTVSS VL: DIVLTQSPATLSVTPGHSVSLSCRASQSISNNLHWYQKKSHESPRLLIKYVSQSISGIPSRFSGSGSGTDFTLSINSVETEDFGMYFCQQSYNWPLTFGAGTKLELK", "loss of binding vs wild type": "≥ 95"}
